Reference: patent US11352401

Tests used:
[1] = target: T1, HLA-B*08 (human); assay: UV peptide-exchange ELISA; ++++ = yield >75%
T1 construct: MHC monomer made peptide-receptive by UV cleavage of a UV-sensitive ligand; also called peptide-receptive MHC class I monomer

[2] = target: T2, HLA-B*44 (human); assay: UV peptide-exchange ELISA; ++++ = yield >75%
T2 construct: MHC monomer made peptide-receptive by UV cleavage of a UV-sensitive ligand; also called peptide-receptive MHC class I monomer

[3] = target: T3, HLA-A*24 (human); assay: UV peptide-exchange ELISA; +++ = yield >50%
T3 construct: MHC monomer made peptide-receptive by UV cleavage of a UV-sensitive ligand; also called peptide-receptive MHC class I monomer

[4] = target: T4, HLA-B*07 (human); assay: UV peptide-exchange ELISA; +++ = yield >50%
T4 construct: MHC monomer made peptide-receptive by UV cleavage of a UV-sensitive ligand; also called peptide-receptive MHC class I monomer

B1: MPMQDIKM (SEQ ID NO: 296) (peptide)
peptide: MPMQDIKM
- peptide exchange yield [1]: > 75%

B2: TENRYCVQL (SEQ ID NO: 337) (peptide)
peptide: TENRYCVQL
- peptide exchange yield [2]: > 75%

B3: RYKQDVERF (SEQ ID NO: 383) (peptide)
peptide: RYKQDVERF
- peptide exchange yield [3]: 50 to 75%

B4: LPPKKFVL (SEQ ID NO: 310) (peptide)
peptide: LPPKKFVL
- peptide exchange yield [1]: > 75%

B5: LPRAGGAFL (SEQ ID NO: 276) (peptide)
peptide: LPRAGGAFL
- peptide exchange yield [4]: 50 to 75%

B6: SPQRLRGLLL (SEQ ID NO: 292) (peptide)
peptide: SPQRLRGLLL
- peptide exchange yield [4]: 50 to 75%

B7: APSARVGVC (SEQ ID NO: 261) (peptide)
peptide: APSARVGVC
- peptide exchange yield [4]: 50 to 75%

B8: RVIDAVRFTL (SEQ ID NO: 253) (peptide)
peptide: RVIDAVRFTL
- peptide exchange yield [4]: 50 to 75%

B9: ELKKKEYEEL (SEQ ID NO: 313) (peptide)
peptide: ELKKKEYEEL
- peptide exchange yield [1]: > 75%

B10: NYAENILTL (SEQ ID NO: 61) (peptide)
peptide: NYAENILTL
- peptide exchange yield [3]: 50 to 75%

B11: EAMLRNKEL (SEQ ID NO: 312) (peptide)
peptide: EAMLRNKEL
- peptide exchange yield [1]: > 75%

B12: VFQEKHHVI (SEQ ID NO: 380) (peptide)
peptide: VFQEKHHVI
- peptide exchange yield [3]: 50 to 75%

B13: LPFPKFTV (SEQ ID NO: 303) (peptide)
peptide: LPFPKFTV
- peptide exchange yield [1]: > 75%

B14: RPMQQARAQL (SEQ ID NO: 459) (peptide)
peptide: RPMQQARAQL
- peptide exchange yield [4]: 50 to 75%

B15: SEPALLHSW (SEQ ID NO: 339) (peptide)
peptide: SEPALLHSW
- peptide exchange yield [2]: > 75%

B16: LVKVKVLL (SEQ ID NO: 317) (peptide)
peptide: LVKVKVLL
- peptide exchange yield [1]: > 75%

B17: TYLSIFDQL (SEQ ID NO: 60) (peptide)
peptide: TYLSIFDQL
- peptide exchange yield [3]: 50 to 75%

B18: VEAPGPVHVYW (SEQ ID NO: 346) (peptide)
peptide: VEAPGPVHVYW
- peptide exchange yield [2]: > 75%

B19: TYNPDFSSL (SEQ ID NO: 16) (peptide)
peptide: TYNPDFSSL
- peptide exchange yield [3]: 50 to 75%

B20: WYGWHFPEL (SEQ ID NO: 76) (peptide)
peptide: WYGWHFPEL
- peptide exchange yield [3]: 50 to 75%

B21: KEADIHFLI (SEQ ID NO: 358) (peptide)
peptide: KEADIHFLI
- peptide exchange yield [2]: > 75%

B22: AEVGFVRFF (SEQ ID NO: 484) (peptide)
peptide: AEVGFVRFF
- peptide exchange yield [2]: > 75%

B23: NEVLTYIKF (SEQ ID NO: 352) (peptide)
peptide: NEVLTYIKF
- peptide exchange yield [2]: > 75%

B24: SYIGLPLTL (SEQ ID NO: 73) (peptide)
peptide: SYIGLPLTL
- peptide exchange yield [3]: 50 to 75%

B25: KQMEDGHTLF (SEQ ID NO: 36) (peptide)
peptide: KQMEDGHTLF
- peptide exchange yield [3]: 50 to 75%

B26: SEIGKAVGF (SEQ ID NO: 489) (peptide)
peptide: SEIGKAVGF
- peptide exchange yield [2]: > 75%

B27: TPYQEHVAL (SEQ ID NO: 274) (peptide)
peptide: TPYQEHVAL
- peptide exchange yield [4]: 50 to 75%

B28: MLKQKVEEL (SEQ ID NO: 308) (peptide)
peptide: MLKQKVEEL
- peptide exchange yield [1]: > 75%

B29: AIISRLVAL (SEQ ID NO: 314) (peptide)
peptide: AIISRLVAL
- peptide exchange yield [1]: > 75%

B30: APREEQQRSL (SEQ ID NO: 287) (peptide)
peptide: APREEQQRSL
- peptide exchange yield [4]: 50 to 75%

B31: IYHSHHPTL (SEQ ID NO: 382) (peptide)
peptide: IYHSHHPTL
- peptide exchange yield [3]: 50 to 75%

B32: QYEPPSAPSTTF (SEQ ID NO: 40) (peptide)
peptide: QYEPPSAPSTTF
- peptide exchange yield [3]: 50 to 75%

B33: MPLPWSLALP (SEQ ID NO: 271) (peptide)
peptide: MPLPWSLALP
- peptide exchange yield [4]: 50 to 75%

B34: SYSSCYSF (SEQ ID NO: 14) (peptide)
peptide: SYSSCYSF
- peptide exchange yield [3]: 50 to 75%

B35: SPARASPAL (SEQ ID NO: 279) (peptide)
peptide: SPARASPAL
- peptide exchange yield [4]: 50 to 75%

B36: MAQFKEISL (SEQ ID NO: 299) (peptide)
peptide: MAQFKEISL
- peptide exchange yield [1]: > 75%

B37: MPQIETRVIL (SEQ ID NO: 282) (peptide)
peptide: MPQIETRVIL
- peptide exchange yield [4]: 50 to 75%

B38: FEYDFLLQRI (SEQ ID NO: 328) (peptide)
peptide: FEYDFLLQRI
notes: also called FEYDFLLORI
- peptide exchange yield [2]: > 75%

B39: KSSVIASLLF (SEQ ID NO: 33) (peptide)
peptide: KSSVIASLLF
- peptide exchange yield [3]: 50 to 75%

B40: VQQWSVAVF (SEQ ID NO: 7) (peptide)
peptide: VQQWSVAVF
- peptide exchange yield [3]: 50 to 75%

B41: ILLPRTVSL (SEQ ID NO: 307) (peptide)
peptide: ILLPRTVSL
- peptide exchange yield [1]: > 75%

B42: SYEVRSTF (SEQ ID NO: 21) (peptide)
peptide: SYEVRSTF
- peptide exchange yield [3]: 50 to 75%

B43: SEMNVNMKY (SEQ ID NO: 365) (peptide)
peptide: SEMNVNMKY
- peptide exchange yield [2]: > 75%

B44: RALLARLLL (SEQ ID NO: 247) (peptide)
peptide: RALLARLLL
- peptide exchange yield [4]: 50 to 75%

B45: YMHKLLVL (SEQ ID NO: 301) (peptide)
peptide: YMHKLLVL
- peptide exchange yield [1]: > 75%

B46: APHPPLSVV (SEQ ID NO: 275) (peptide)
peptide: APHPPLSVV
- peptide exchange yield [4]: 50 to 75%

B47: RWLPQKNAAQF (SEQ ID NO: 387) (peptide)
peptide: RWLPQKNAAQF
- peptide exchange yield [3]: 50 to 75%

B48: RAQLKLVAL (SEQ ID NO: 297) (peptide)
peptide: RAQLKLVAL
- peptide exchange yield [1]: > 75%

B49: YPQHPGLNA (SEQ ID NO: 260) (peptide)
peptide: YPQHPGLNA
- peptide exchange yield [4]: 50 to 75%

B50: DIYQRALNL (SEQ ID NO: 315) (peptide)
peptide: DIYQRALNL
- peptide exchange yield [1]: > 75%

B51: ELKKLYCQI (SEQ ID NO: 304) (peptide)
peptide: ELKKLYCQI
- peptide exchange yield [1]: > 75%

B52: IEFIHPQAF (SEQ ID NO: 345) (peptide)
peptide: IEFIHPQAF
- peptide exchange yield [2]: > 75%

B53: MEVDPIGHVYIF (SEQ ID NO: 320) (peptide)
peptide: MEVDPIGHVYIF
- peptide exchange yield [2]: > 75%

B54: LLIKLLQTF (SEQ ID NO: 54) (peptide)
peptide: LLIKLLQTF
- peptide exchange yield [3]: 50 to 75%

B55: AEMLERVIKNY (SEQ ID NO: 319) (peptide)
peptide: AEMLERVIKNY
- peptide exchange yield [2]: > 75%

B56: NYIVPDKQIF (SEQ ID NO: 379) (peptide)
peptide: NYIVPDKQIF
- peptide exchange yield [3]: 50 to 75%

B57: DELFSIALY (SEQ ID NO: 359) (peptide)
peptide: DELFSIALY
- peptide exchange yield [2]: > 75%

B58: EAAIRSVEL (SEQ ID NO: 318) (peptide)
peptide: EAAIRSVEL
- peptide exchange yield [1]: > 75%

B59: ILKVKVGL (SEQ ID NO: 306) (peptide)
peptide: ILKVKVGL
- peptide exchange yield [1]: > 75%

B60: RIREHVPQL (SEQ ID NO: 245) (peptide)
peptide: RIREHVPQL
- peptide exchange yield [4]: 50 to 75%

B61: VPISEEGTPVL (SEQ ID NO: 280) (peptide)
peptide: VPISEEGTPVL
- peptide exchange yield [4]: 50 to 75%

B62: YYADKKTFIVL (SEQ ID NO: 17) (peptide)
peptide: YYADKKTFIVL
- peptide exchange yield [3]: 50 to 75%

B63: ALKLRVAVL (SEQ ID NO: 305) (peptide)
peptide: ALKLRVAVL
- peptide exchange yield [1]: > 75%

B64: EIRIRVVQM (SEQ ID NO: 311) (peptide)
peptide: EIRIRVVQM
- peptide exchange yield [1]: > 75%

B65: GEIIMQNNW (SEQ ID NO: 353) (peptide)
peptide: GEIIMQNNW
- peptide exchange yield [2]: > 75%

B66: SENLFFASF (SEQ ID NO: 361) (peptide)
peptide: SENLFFASF
- peptide exchange yield [2]: > 75%
